Experimental data: patent publication US20180030151A1 (MOGAM INSTITUTE FOR BIOMEDICAL RESEARCH, published 2018)
Where a chain is given by its changes, count along the chain named. Where two headings read alike, the source gives them in different places.

Columns and labels:
[1] = target: T1, recombinant human TFPI (tissue factor pathway inhibitor) (human, UniProt P10646 29-304); assay: cell-based or functional assay
[2] = target: T1, recombinant human TFPI (tissue factor …); assay: cell-based or functional assay; remark: listed apart in the source
[3] = target: T1, recombinant human TFPI (tissue factor …); assay: cell-based or functional assay; remark: listed apart in the source
[4] = target: T1, recombinant human TFPI (tissue factor …); assay: cell-based or functional assay; remark: listed apart in the source
[5] = target: T1, recombinant human TFPI (tissue factor …); assay: cell-based or functional assay; remark: listed apart in the source
[6] = target: T1, recombinant human TFPI (tissue factor …); assay: cell-based or functional assay; remark: listed apart in the source
[7] = target: T1, recombinant human TFPI (tissue factor …); assay: cell-based or functional assay; remark: listed apart in the source
[8] = target: T1, recombinant human TFPI (tissue factor …); assay: cell-based or functional assay; remark: listed apart in the source
[9] = target: T1, recombinant human TFPI (tissue factor …); assay: cell-based or functional assay; remark: listed apart in the source
[10] = target: T1, recombinant human TFPI (tissue factor …); assay: cell-based or functional assay; remark: listed apart in the source
[11] = target: T1, recombinant human TFPI (tissue factor …); assay: cell-based or functional assay; remark: listed apart in the source
[12] = target: T1, recombinant human TFPI (tissue factor …); assay: cell-based or functional assay; remark: listed apart in the source
[13] = target: T1, recombinant human TFPI (tissue factor …); assay: SPR, Biacore T-200; TFPI immobilised on CM5 chip, IgG as analyte
Method: 10 mM of glycine-HCl (pH 1.5) was run at a flow rate of 30 μL/min for 30 seconds, thereby inducing the dissociation of the antibody associated with the TFPI. The affinity in terms of kinetic rate constants (Kₒₙ and Koff) and equilibrium dissociation constant

[14] = target: TFPI in FVIII-deficient plasma (sample dilution); assay: cell-based or functional assay

B1: clone 308-4 (antibody, V domains shown)
VH: EVQLVESGGGLVKPGGSLRLSCAASGFTFSSYAMNWVRQAPGKGLEWVSTITTGGSYTYYADSVEGRFTISRDNAKNSLYLQMNSLRAEDTAVYYCARQDGNFLMDYWGQGTLVTVSS
VL: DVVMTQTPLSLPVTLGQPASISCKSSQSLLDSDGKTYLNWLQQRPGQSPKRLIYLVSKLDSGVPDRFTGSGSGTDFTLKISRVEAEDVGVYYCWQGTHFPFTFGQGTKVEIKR
TFPI inhibitory activity, FXa activity assay, Ab 10 nM [1]: 78%
TFPI inhibitory activity, FXa activity assay, Ab 40 nM [1]: 82%
TFPI inhibitory activity, TF/FVIIa/FXa complex assay, Ab 50 nM [1]: 100%
TFPI inhibitory activity, TF/FVIIa/FXa complex assay, Ab 100 nM [1]: 100%
A405, TF/FVIIa/FX complex assay, Ab 1.56 nM [2]: 0.135
A405, TF/FVIIa/FX complex assay, Ab 3.13 nM [2]: 0.155
A405, TF/FVIIa/FX complex assay, Ab 6.25 nM [2]: 0.177
A405, TF/FVIIa/FX complex assay, Ab 12.5 nM [2]: 0.223
A405, TF/FVIIa/FX complex assay, Ab 25 nM [2]: 0.664
A405, TF/FVIIa/FX complex assay, Ab 50 nM [2]: 0.926
A405, TF/FVIIa/FX complex assay, Ab 100 nM [2]: 0.938
% of Normalized, TF/FVIIa/FX complex assay, Ab 1.56 nM [3]: 14.7%
% of Normalized, TF/FVIIa/FX complex assay, Ab 3.13 nM [3]: 16.8%
% of Normalized, TF/FVIIa/FX complex assay, Ab 6.25 nM [3]: 19.2%
% of Normalized, TF/FVIIa/FX complex assay, Ab 12.5 nM [3]: 24.2%
% of Normalized, TF/FVIIa/FX complex assay, Ab 25 nM [3]: 72.3%
% of Normalized, TF/FVIIa/FX complex assay, Ab 50 nM [3]: 101%
% of Normalized, TF/FVIIa/FX complex assay, Ab 100 nM [3]: 102%
A405, TF/FVIIa/FX complex assay, Ab 1.56 nM [4]: 0.154
A405, TF/FVIIa/FX complex assay, Ab 3.13 nM [4]: 0.164
A405, TF/FVIIa/FX complex assay, Ab 6.25 nM [4]: 0.185
A405, TF/FVIIa/FX complex assay, Ab 12.5 nM [4]: 0.222
A405, TF/FVIIa/FX complex assay, Ab 25 nM [4]: 0.716
A405, TF/FVIIa/FX complex assay, Ab 50 nM [4]: 0.909
A405, TF/FVIIa/FX complex assay, Ab 100 nM [4]: 0.926
% of Normalized, TF/FVIIa/FX complex assay, Ab 1.56 nM [5]: 16.1%
% of Normalized, TF/FVIIa/FX complex assay, Ab 3.13 nM [5]: 17.2%
% of Normalized, TF/FVIIa/FX complex assay, Ab 6.25 nM [5]: 19.4%
% of Normalized, TF/FVIIa/FX complex assay, Ab 12.5 nM [5]: 23.2%
% of Normalized, TF/FVIIa/FX complex assay, Ab 25 nM [5]: 75%
% of Normalized, TF/FVIIa/FX complex assay, Ab 50 nM [5]: 95.2%
% of Normalized, TF/FVIIa/FX complex assay, Ab 100 nM [5]: 97%
FXa assay % of FXa alone, 0.625 nM Ab, 10 nM TFPI [6]: 4%
FXa assay % of FXa alone, 2.5 nM Ab, 10 nM TFPI [6]: 8%
FXa assay OD, 0.625 nM Ab, 10 nM TFPI [6]: 0.042 OD
FXa assay OD, 2.5 nM Ab, 10 nM TFPI [6]: 0.083 OD
FXa assay OD, 10 nM Ab, 10 nM TFPI [6]: 0.765 OD
FXa assay OD, 40 nM Ab, 10 nM TFPI [6]: 0.804 OD
TF/FVIIa/FXa assay % of 0 nM TFPI, 12.5 nM Ab, 50 nM TFPI [7]: 20.7%
TF/FVIIa/FXa assay % of 0 nM TFPI, 50 nM Ab, 50 nM TFPI [7]: 111%
TF/FVIIa/FXa assay % of 0 nM TFPI, 100 nM Ab, 50 nM TFPI [7]: 111%
TF/FVIIa/FXa assay OD, 12.5 nM Ab, 50 nM TFPI [7]: 0.166 OD
TF/FVIIa/FXa assay OD, 25 nM Ab, 50 nM TFPI [7]: 0.548 OD
TF/FVIIa/FXa assay OD, 50 nM Ab, 50 nM TFPI [7]: 0.886 OD
TF/FVIIa/FXa assay OD, 100 nM Ab, 50 nM TFPI [7]: 0.89 OD
FXa assay % of FXa alone, 2.5 nM Ab, 10 nM TFPI [8]: 8.3%
FXa assay % of FXa alone, 5 nM Ab, 10 nM TFPI [8]: 59.8%
FXa assay % of FXa alone, 10 nM Ab, 10 nM TFPI [8]: 73.9%
FXa assay % of FXa alone, 20 nM Ab, 10 nM TFPI [8]: 74.1%
FXa assay OD, 2.5 nM Ab, 10 nM TFPI [8]: 0.06
FXa assay OD, 5 nM Ab, 10 nM TFPI [8]: 0.43
FXa assay OD, 10 nM Ab, 10 nM TFPI [8]: 0.531
FXa assay % of FXa alone, 2.5 nM Ab, 10 nM TFPI [9]: 9.9%
FXa assay % of FXa alone, 5 nM Ab, 10 nM TFPI [9]: 56.8%
FXa assay % of FXa alone, 10 nM Ab, 10 nM TFPI [9]: 76.8%
FXa assay % of FXa alone, 20 nM Ab, 10 nM TFPI [9]: 77.3%
FXa assay OD, 2.5 nM Ab, 10 nM TFPI [9]: 0.0765
FXa assay OD, 5 nM Ab, 10 nM TFPI [9]: 0.438
FXa assay OD, 10 nM Ab, 10 nM TFPI [9]: 0.591
FXa assay % of FXa alone, 2.5 nM Ab, 10 nM TFPI [10]: 8.5%
FXa assay % of FXa alone, 5 nM Ab, 10 nM TFPI [10]: 26.5%
FXa assay % of FXa alone, 10 nM Ab, 10 nM TFPI [10]: 57.9%
FXa assay % of FXa alone, 20 nM Ab, 10 nM TFPI [10]: 67%
FXa assay OD, 2.5 nM Ab, 10 nM TFPI [10]: 0.041
FXa assay OD, 5 nM Ab, 10 nM TFPI [10]: 0.129
FXa assay OD, 10 nM Ab, 10 nM TFPI [10]: 0.28
FXa assay OD, 20 nM Ab, 10 nM TFPI [10]: 0.325
FXa assay % of FXa alone, 2.5 nM Ab, 10 nM TFPI [11]: 8.6%
FXa assay % of FXa alone, 5 nM Ab, 10 nM TFPI [11]: 30.7%
FXa assay % of FXa alone, 10 nM Ab, 10 nM TFPI [11]: 60.4%
FXa assay % of FXa alone, 20 nM Ab, 10 nM TFPI [11]: 71.6%
FXa assay OD, 2.5 nM Ab, 10 nM TFPI [11]: 0.069
FXa assay OD, 5 nM Ab, 10 nM TFPI [11]: 0.247
FXa assay OD, 10 nM Ab, 10 nM TFPI [11]: 0.487
FXa assay OD, 20 nM Ab, 10 nM TFPI [11]: 0.578
FXa assay % of FXa alone, 2.5 nM Ab, 10 nM TFPI [12]: 7%
FXa assay % of FXa alone, 5 nM Ab, 10 nM TFPI [12]: 20.8%
FXa assay % of FXa alone, 10 nM Ab, 10 nM TFPI [12]: 49.3%
FXa assay % of FXa alone, 20 nM Ab, 10 nM TFPI [12]: 68.4%
FXa assay OD, 2.5 nM Ab, 10 nM TFPI [12]: 0.057
FXa assay OD, 5 nM Ab, 10 nM TFPI [12]: 0.169
FXa assay OD, 10 nM Ab, 10 nM TFPI [12]: 0.401
FXa assay OD, 20 nM Ab, 10 nM TFPI [12]: 0.555
Kd [13]: 24 pM

B2: clone 308 (antibody, V domains shown)
VH: B1 VH with E65K
VL: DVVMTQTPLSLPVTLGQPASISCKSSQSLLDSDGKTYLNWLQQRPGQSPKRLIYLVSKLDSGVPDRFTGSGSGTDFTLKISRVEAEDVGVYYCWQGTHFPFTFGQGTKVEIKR
notes: Humanized form of T417, IgG
TFPI inhibitory activity, FXa activity assay, Ab 10 nM [1]: ~58.2%
TFPI inhibitory activity, FXa activity assay, Ab 40 nM [1]: ~85.1%
TFPI inhibitory activity, TF/FVIIa/FXa complex assay, Ab 50 nM [1]: ~54.2%
TFPI inhibitory activity, TF/FVIIa/FXa complex assay, Ab 100 nM [1]: ~94.3%
ETP vs negative control, thrombin generation assay, Ab 2.5 nM [14]: 122%
thrombin peak vs blank, thrombin generation assay, Ab 2.5 nM [14]: 162%
FXa assay % of FXa alone, 0.625 nM Ab, 10 nM TFPI [6]: 5%
FXa assay % of FXa alone, 2.5 nM Ab, 10 nM TFPI [6]: 8%
FXa assay OD, 0.625 nM Ab, 10 nM TFPI [6]: 0.049 OD
FXa assay OD, 2.5 nM Ab, 10 nM TFPI [6]: 0.078 OD
FXa assay OD, 10 nM Ab, 10 nM TFPI [6]: 0.519 OD
FXa assay OD, 40 nM Ab, 10 nM TFPI [6]: 0.718 OD
TF/FVIIa/FXa assay % of 0 nM TFPI, 12.5 nM Ab, 50 nM TFPI [7]: 17.9%
TF/FVIIa/FXa assay % of 0 nM TFPI, 50 nM Ab, 50 nM TFPI [7]: 66.5%
TF/FVIIa/FXa assay % of 0 nM TFPI, 100 nM Ab, 50 nM TFPI [7]: 104%
TF/FVIIa/FXa assay OD, 12.5 nM Ab, 50 nM TFPI [7]: 0.143 OD
TF/FVIIa/FXa assay OD, 25 nM Ab, 50 nM TFPI [7]: 0.248 OD
TF/FVIIa/FXa assay OD, 50 nM Ab, 50 nM TFPI [7]: 0.533 OD
TF/FVIIa/FXa assay OD, 100 nM Ab, 50 nM TFPI [7]: 0.833 OD
Kd [13]: 50 pM
